Measured values from PMC7704405, “Monoclonal Anti-AMP Antibodies Are Sensitive and Valuable Tools for Detecting Patterns of AMPylation” (iScience, 2020).

Target: T1, endogenous AMPylated BiP of CHO-K1 cells (Cricetulus griseus (CHO-K1), UniProt G3I8R9, AMP (threonine 518 is the site the paper names for BiP modified by FICD))
T1 construct: ER chaperone BiP/Grp-78, endogenous in CHO-K1 cells; also called endogenous BiP-AMP; source: endogenous, CHO-K1 lysate (untreated or treated with CHX 4 h); also after methanol/chloroform precipitation (denatured)
Test: western blot; 20 μg total cell lysate (HEK293, CHO-K1; untreated, TG 2 h or CHX 4 h; in Figure 4A HEK293 lysate spiked with a titration of recombinant BiP-AMP) on the blot, probed with 17G6 in the presence of MnCl2
Conditions: one partner purified

T1 sequence (G3I8R9 19-654): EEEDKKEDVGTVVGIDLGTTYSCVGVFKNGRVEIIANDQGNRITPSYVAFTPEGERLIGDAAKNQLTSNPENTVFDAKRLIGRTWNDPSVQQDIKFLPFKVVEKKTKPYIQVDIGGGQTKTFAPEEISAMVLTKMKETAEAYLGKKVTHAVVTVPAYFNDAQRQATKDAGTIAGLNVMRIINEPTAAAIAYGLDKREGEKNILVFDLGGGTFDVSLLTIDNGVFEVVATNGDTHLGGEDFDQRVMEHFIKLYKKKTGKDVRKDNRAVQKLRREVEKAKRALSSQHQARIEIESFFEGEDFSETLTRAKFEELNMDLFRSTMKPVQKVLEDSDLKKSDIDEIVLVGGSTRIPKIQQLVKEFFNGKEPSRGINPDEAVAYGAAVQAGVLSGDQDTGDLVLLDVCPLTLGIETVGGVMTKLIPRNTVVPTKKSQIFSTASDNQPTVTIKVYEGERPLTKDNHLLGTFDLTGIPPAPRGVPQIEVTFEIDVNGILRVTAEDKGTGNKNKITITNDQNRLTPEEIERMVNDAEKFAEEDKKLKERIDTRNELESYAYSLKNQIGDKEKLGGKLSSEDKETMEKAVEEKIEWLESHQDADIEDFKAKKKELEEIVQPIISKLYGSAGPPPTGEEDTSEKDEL

binding result: binds
B1: monoclonal anti-AMP antibody 17G6 (antibody, V domains shown)
VH: EVQLQQSGPELVKPGASVKISCKASGYTFTDYYLNWVKQSHGKSLEWIGDIHPNKGINKYNQKFKGKATLTVDKSSSTAYMELRSLTSEDSAVYYCARYYGKRYFDVWGTGTMVTVSS
VL: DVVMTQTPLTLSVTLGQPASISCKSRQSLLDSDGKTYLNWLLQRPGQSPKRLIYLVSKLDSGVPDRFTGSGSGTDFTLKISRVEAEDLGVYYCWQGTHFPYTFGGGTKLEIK
notes: Recognises the AMP moiety on modified side chains; no preference for Thr or Tyr; source: mouse hybridoma (C57BL/6, BSA-hapten immunogen); roller bottle cell culture, purified from the supernatant (Protein A); clone supernatant in the selection ELISA
